Laboratory results: the supplement of paper PMC9170038

Test system: MS2 coat protein
Assay: apparent KD of MS2 coat protein; designed switch direction (-1 OFF switch, 1 ON switch): -1; higher = weaker reporter binding
Outline: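 Designed RNA switches were transcribed on Illumina chips by stalled E. coli RNA polymerase and titrated with SNAP-549-labelled MS2 coat protein from 0.7 or 1.5 nM, doubling to 3 µM. Step length ran from 0.8–1.5 h at the lowest concentration to 10–20 min at the highest. The apparent KD is the median over clusters for each design, from curve-fitted normalised cluster fluorescence.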

[1] = Eterna round: R95, input ligand: FMN 200 uM
[2] = Eterna round: R95, input ligand: microRNA oligo, concentration not stated
[3] = Eterna round: R95, input ligand: none
[4] = input ligand: microRNA oligo, concentration not stated

Sequence	apparent KD of MS2 coat protein [1]	apparent KD of MS2 coat protein [2]	apparent KD of MS2 coat protein [3]	apparent KD of MS2 coat protein (input ligand: FMN 200 uM)	apparent KD of MS2 coat protein [4]	apparent KD of MS2 coat protein (input ligand: none)
GGUCAAGAACAGCGCCGCGCUGCCCUUGACCGCUCAUUUACAUGAGGAUCACCCAUGUUUUUUGCUUGUCUUGUUUC [Tiordiri] (puzzle: Sensor v3, turn-off variant 2)	20.6 nM	101 nM	23.7 nM	–	–	–
GGUCAAGGACAGCUCCGCGCUGCCCUUGACCGCUCAUUUACAUGAGGAUCACCCAUGUUUUUUGCUUGUCUUGUUUC [Atedorgela] (puzzle: Sensor v3, turn-off variant 2)	20 nM	110 nM	24.2 nM	–	–	–
GGUCAGACGGUAGGAUAUUCAUAUCGAGUGACCCUUUCAUAACAUGAGGAUCACCCAUGUCGGUGGGAGAAGGGCCGUACGGCG [salish99_ExNG02_R04_008] (Eterna round: R96, puzzle: Exclusion NG 2)	–	–	–	41 nM	31.9 nM	33.6 nM
GGUCAGAUGGUAGGAUAUCCAUAUCGAGUGACCCUUUCAUAACAUGAGGAUCACCCAUGUCGGUGGGAGAAGGGCCGUACGGCG [salish99_ExNG02_R04_010] (Eterna round: R96, puzzle: Exclusion NG 2)	–	–	–	43.9 nM	32.8 nM	41.7 nM
GGUCAGAUGGUAGGAUAUUCAUAUCGAGUGACCCUUUCAUAACAUGAGGAUCACCCAUGUCGGUGGGAGAAGGGCCGUACGGCG [salish99_ExNG02_R04_014] (Eterna round: R96, puzzle: Exclusion NG 2)	–	–	–	26.9 nM	29.3 nM	50.7 nM
GGUCAUCAAGUCAGGAUAUCGUCAAAUCAAUCAGGCGAGAAGGGACAUGAGGAUCACCCAUGUCGACUCAUCAC [Ex4 #4] (Eterna round: R97, puzzle: Brourd's mod of Exclusion 4)	–	–	–	117 nM	–	31.2 nM
GGUCCGAGUGUGAGGAUAUGCUGGUCCUUGGAUCAGCAGAAGGCACAUGAGGAUCACCCAUGUGAAGACGGACC [Mat - Exclusion 4 - Eli Mod - D30] (Eterna round: R97, puzzle: Brourd's mod of Exclusion 4)	–	–	–	537 nM	–	91.5 nM
GGUCGUAUGAGUAGUCCUCAUUGAAGAGAUUGGUAAGAUACAUGAGGAUCACCCAUGUUUGAACAAGCUUUUGCUCU [JR_Sv3TOV2_Sub008] (Eterna round: R96, puzzle: Sensor v3, turn-off variant 2)	–	–	–	159 nM	54.3 nM	118 nM
GGUCGUAUGAGUAGUCCUCAUUGAAGAGAUUGGUAAGAUACAUGAGGAUCACCCAUGUUUGAACAAGCUUUUGCUCU [JR_Sv3TOV2_Sub008] (puzzle: Sensor v3, turn-off variant 2)	96 nM	41.9 nM	120 nM	–	–	–
GGUGCGUAUGUGAGGAUAUGCUGGUCCUUGGAUCGGCAGAAGGUACAUGAGGAUCACCCAUGUGGUGUCGUUCC [salish99_Bmod_ex4_102] (puzzle: Brourd's mod of Exclusion 4)	–	87 nM	–	–	–	–
GGUGCGUUUGUGAGGAUAUGCUGGUCCUUGGAUCAGCAGAAGGCACAUGAGGAUCACCCAUGUGGUGUCCCUCC [salish99_Bmod_Ex4_040] (puzzle: Brourd's mod of Exclusion 4)	–	154 nM	–	–	–	–
GGUGCGUUUGUGAGGAUAUGCUGGUCCUUGGAUCAGCAGAAGGCACAUGAGGAUCACCCAUGUGGUGUCGGUCC [salish99_Bmod_Ex4_038] (puzzle: Brourd's mod of Exclusion 4)	–	252 nM	–	–	–	–
GGUGCGUUUGUGAGGAUAUGCUGGUCCUUGGGUCAGCAGAAGGCACAUGAGGAUCACCCAUGUGGUGUCGUACC [salish99_Bmod_Ex4_032] (puzzle: Brourd's mod of Exclusion 4)	–	178 nM	–	–	–	–
GGUGCUGGCGCGUCGGUGUUGGUGCAAUAAGCUUGUGAGACAUGAGGAUCACCCAUGUCCUCGUGGGCUCGUCUUGU [salish99_TOv2_r2_091] (puzzle: Sensor v3, turn-off variant 2)	91.2 nM	79.3 nM	93.7 nM	–	–	–
GGUGGACAUGAGGAUCACCCAUGUGAGGAUAUCGGCUAUCUACUCGCUGACGGCUGCUCGAGAAGGCGCAUUGU [Exclusion 1 V90] (puzzle: Exclusion 1)	–	44.8 nM	–	–	–	–
GGUGGACAUGAGGAUCACCCAUGUGAGGAUAUCGGCUGGUACGUGGUGGCUGGCAUCUCGAGAAGGCACAUAGU [Exclusion 1 V66] (puzzle: Exclusion 1)	–	83.6 nM	–	–	–	–
GGUGGACAUGAGGAUCACCCAUGUGAGGAUAUCGGCUGGUACGUGUUGGCUGGCAUCUCGAGAAGGCACAUCGU [Exclusion 1 V64] (Eterna round: R96, puzzle: Exclusion 1)	–	–	–	181 nM	46 nM	49 nM

Sequence	apparent KD of MS2 coat protein [1]	apparent KD of MS2 coat protein [2]	apparent KD of MS2 coat protein [3]	apparent KD of MS2 coat protein (input ligand: FMN 200 uM)	apparent KD of MS2 coat protein [4]	apparent KD of MS2 coat protein (input ligand: none)
GGUGGACAUGAGGAUCACCCAUGUGAGGAUAUCGGCUGGUACGUGUUGGCUGGCAUCUCGAGAAGGCACAUCGU [Exclusion 1 V64] (puzzle: Exclusion 1)	–	44.8 nM	–	–	–	–
GGUGUUGAAGGAUAUACAUGAGGAUCACCCAUGUACCGCUCGGACAAGAUAUCAUUCAGUAGAAGGUCGGACCG [Eternabot (L2) Solution 11] (Eterna round: R97, puzzle: Exclusion 3)	–	–	–	66.5 nM	–	150 nM
GGUUGACAUGAGGAUCACCCAUGUGAGGAUAUGCGAGAGAAAAAAGUGAGGAAGAAAUGCAGAAGGCGCUGUCG [salish99-ex1_r3_009] (puzzle: Exclusion 1)	127 nM	81.5 nM	433 nM	–	–	–
GGUUGGCGAGGAUAUACAUGAGGAUCACCCAUGUGAGAGAAAAAAGUGAGGAAGAACAGUAGAAGGCGCUGACG [salish99_ex3_r3_036] (puzzle: Exclusion 3)	162 nM	74.2 nM	106 nM	–	–	–
GGUUGGCGAGGAUAUACAUGAGGAUCACCCAUGUGAGAGAAAAAAGUGAGGCAGAAAAGUAGAAGGCGCUGACG [salish99_ex3_r3_031] (puzzle: Exclusion 3)	137 nM	29.8 nM	96.8 nM	–	–	–
GGUUGGCGAGGAUAUACAUGAGGAUCACCCAUGUGAGAGAAACAAGUGAGGAAGAAAAGUAGAAGGCGCUGACG [salish99_ex3_r3_023] (puzzle: Exclusion 3)	112 nM	88.1 nM	37.1 nM	–	–	–
GGUUGGCGAGGAUAUACAUGAGGAUCACCCAUGUGAGAGAAUAAAGUGAGAAAGAAAAGUAGAAGGCGCUGACG [Mat - Exclusion 3 - Mod of Salish D49] (puzzle: Exclusion 3)	728 nM	56.9 nM	43.3 nM	–	–	–
GGUUGGCGAGGAUAUACAUGAGGAUCACCCAUGUGAGAGAAUAAAGUGAGGAAGAAAAGUAGAAGGCGCUGACA [Mat - Exclusion 3 - Mod of Salish D8] (puzzle: Exclusion 3)	154 nM	42.1 nM	40.7 nM	–	–	–
GGUUGUUGUUUCCGUUCUUACAUGAGGAUCACCCAUGUUUCUUGUCGUGCUCGCGUUGCUCGUCUGGCUGCCUGUUG [salish99_TOv1_r3_070] (puzzle: Sensor v3, turn-off variant 1)	41.2 nM	37.4 nM	54.4 nM	–	–	–
GGUUGUUGUUUCCGUUCUUACAUGAGGAUCACCCAUGUUUCUUGUCGUGCUCGCGUUGCUCGUCUGUCUGUCUGUUG [salish99_TOv1_r3_072] (puzzle: Sensor v3, turn-off variant 1)	55.7 nM	36.2 nM	63 nM	–	–	–
GGUUGUUUUUUCCGUUCUUACAUGAGGAUCACCCAUGUUUCUUGUCGUGCUCGCGUUGCUCGUCUGUCUGUCUGUUG [salish99_TOv1_r3_073] (puzzle: Sensor v3, turn-off variant 1)	48.5 nM	34.3 nM	56 nM	–	–	–
GGUUUAGUAGAGGAUAUGUCACUGUCGCAGGAGACAGAAGGCUGCACAUGAGGAUCACCCAUGUCGGUAAUGAG [Eternabot (L1) Solution 89] (Eterna round: R97, puzzle: Exclusion 6)	–	–	–	21.8 nM	–	16.3 nM
GUAAACGAAGAGGAUAUUUGAUAUCAUAGCUUCAAAGAAGGCUUCACAUGAGGAUCACCCAUGUGAUCUUCAAA [Mat - Exclusion 6 - JL Mod - D22] (Eterna round: R97, puzzle: Exclusion 6)	–	–	–	142 nM	–	20.7 nM
GUAAACGAUCAGGAUAUAUCAAAUCAUAGCUUGAUAGAAGGGAUCACAUGAGGAUCACCCAUGUGAUCUUCUUA [Mat - Exclusion 6 - JL Mod - D36] (Eterna round: R97, puzzle: Exclusion 6)	–	–	–	13 nM	–	10.9 nM
GUAAAGGGUGUCCUUAAAACAUGAGGAUCACCCAUGUGGACUAAGGAUAUCCAAAAUAAAGAUAAGGAGAAGGUAGUGGAAAGA [Usarqudi] (Eterna round: R96, puzzle: Exclusion NG 3)	–	–	–	19.3 nM	19.9 nM	14 nM
GUAAAGUGAGGAUAUGCUGGAGGUGUAUUCUACGUGUCGAAACAUGAGGAUCACCCAUGUAGAAGGCACGGGCG [Sozaquce] (puzzle: Exclusion 2)	–	10 nM	–	–	–	–
GUAACAUGCUGGUGAUCAUACAUGAGGAUCACCCAUGUAACAAGCUUUUUGUUCGUCUUAUAAGAUCACCAGCAUGU [Stov1/9-B2] (Eterna round: R97, puzzle: Sensor, turn-off variant 1)	–	–	–	18.4 nM	–	19.8 nM
